Assay results from patent publication US20140370568A1, “Specialized (iso)eugenol-4-O-methyltransferases (s-IEMTs) and Methods of Making and Using the Same” (Brookhaven Science Associates, LLC, priority 2013, published 2014).

Assays:
[1] = substrate: COc1cc(/C=C/CO)ccc1O; experiment: Enzyme kinetics of MOMT9-1 (4-O-methylation of phenolic substrates); format: biochemical, C. breweri; conditions: other: MOMT9-1
From the text: (§1) Further shaping of the substrate binding pocket targeting residues Thr-319, Ile-165, Leu-133 and Leu-143 by Iterative Saturation Mutagenesis using MOMT8-1 as the starting point lead to the generation of MOMT9-1 which carried all of the substitutions of MOMT8-1 and an additional substitution of Met for Thr at position 319. Thus MOMT9-1 is a specialized (iso)eugenol-4-O-methyltransferase (s-IEMT) having 6-fold higher specific activity with coniferyl alcohol as the substrate compared to its specific activity with sinapyl alcohol as substrate. The s-IEMT designated MOMT9-1 comprises a specialized (iso)eugenol-4-O-methyltransferase having the following substitutions: T133L/E165I/F175I/F166W/H169F/M26H/S30R/V33S/T319M where amine acid residue numbers correspond to those of SEQ ID NO. 1.
(§2) Each of the s-IEMTs was isolated following expression in bacterial cells of nucleic acid sequences encoding the enzymes. The isolated enzymes were analyzed for their substrate versatility, specificity and enzyme kinetics on various phenolic substrates.

[2] = substrate: COc1cc(/C=C/CO)cc(OC)c1O; experiment: as above; format: biochemical, C. breweri; conditions: other: MOMT9-1
From the text: as §1, §2

[3] = Enzyme kinetics, coniferyl alcohol as substrate; format: biochemical; conditions: coniferyl alcohol versus sinapyl alcohol
Protocol: as §2

[4] = Specific activity with ferulic acid as the substrate; format: biochemical
Protocol: as §2

[5] = Specific activity with 5-hydroxyl coniferyl alcohol (formation of iso-sinapyl alcohol); format: biochemical; conditions: substrate 5-hydroxyl coniferyl alcohol; product iso-sinapyl alcohol
Protocol: as §2
Iso-synapyl alcohol is thought to have the potential to be incorporated into lignin. These two additional specialized IEMT's having eight amino acid substitutions are designated as follows and have the indicated substitutions: […]

[6] = substrate: COc1cc(/C=C/CO)ccc1O; experiment: Enzyme kinetics of MOMT8-1 (4-O-methylation of phenolic substrates); format: biochemical, C. breweri; conditions: other: MOMT8-1
From the text: (§3) The first library examined amino acid substitutions at positions not previously explored, i.e., Met-26, Ser-30 and Val-33. The specialized (iso)eugenol-4-O-methyltransferase (s-IEMT) having all of the MOMT-5 substitutions and the additional substitution of His for Met at position 26, Arg for Ser at 30 and Ser for Val at 33 was designated MOMT8-1. The ratio of its activity for methylation of p-coniferyl alcohol versus methylation of p-sinapyl alcohol was 7.5:1 whereas the ratio of activity of MOMT-5 was about 4.2:1.
as §2

[7] = substrate: COc1cc(/C=C/CO)cc(OC)c1O; experiment: as above; format: biochemical, C. breweri; conditions: other: MOMT8-1
From the text: as §3, §2

[8] = substrate: COc1cc(/C=C/CO)cc(O)c1O; experiment: Enzyme kinetics of MOMT8-3 (4-O-methylation of phenolic substrates); format: biochemical, C. breweri; conditions: other: MOMT8-3
Protocol: as §2
(§4) Iso-synapyl alcohol is thought to have the potential to be incorporated into lignin. These two additional specialized IEMT's having eight amino acid substitutions are designated as follows and have the indicated substitutions:
(§5) The specific activity of the various m-IEMT (MOMT-5) and s-IEMTs (MOMT8-2 and MOMT8-3) are shown in Table 4 and enzyme kinetic analysis is shown in Table 5.

[9] = substrate: COc1cc(/C=C/CO)ccc1O; experiment: as above; format: biochemical, C. breweri; conditions: other: MOMT8-3
Protocol: as §2, §4, §5

[10] = substrate: COc1cc(/C=C/CO)cc(OC)c1O; experiment: as above; format: biochemical, C. breweri; conditions: other: MOMT8-3
Protocol: as §2, §4, §5

[11] = substrate: COc1cc(/C=C/CO)cc(O)c1O; experiment: Enzyme kinetics of MOMT8-2 (4-O-methylation of phenolic substrates); format: biochemical, C. breweri; conditions: other: MOMT8-2
Protocol: as §2, §4, §5

[12] = substrate: COc1cc(/C=C/CO)ccc1O; experiment: as above; format: biochemical, C. breweri; conditions: other: MOMT8-2
Protocol: as §2, §4, §5

[13] = substrate: COc1cc(/C=C/CO)cc(OC)c1O; experiment: as above; format: biochemical, C. breweri; conditions: other: MOMT8-2
Protocol: as §2, §4, §5

[14] = substrate: COc1cc(/C=C/CO)cc(O)c1O; experiment: Enzyme kinetics of MOMT-5 (4-O-methylation of phenolic substrates); format: biochemical, C. breweri; conditions: other: MOMT-5
From the text: (§6) Starting with a modified (iso)eugenol-4-O-methyltransferase (m-IEMT) previously designated MOMT-5 having the five substitutions Leu for Thr at 133, Ile for Glu at 165, Ile for Phe at 175, Trp for Phe at 166 and Phe for His at 169 (T133L/E165I/F175I/F166W/H169F), where the amino acid residue numbers correspond to those for the C. breweri (iso)eugenol-4-O-methyltransferase protein (SEQ ID NO. 1), the synergistic effects of simultaneously modifying adjacent amino acids located in the substrate binding pocket have been explored. Specialized (iso)eugenol-4-O-methyltransferases (s-IEMTs) were generated that have relatively little activity on sinapyl alcohol compared to activity on p-coniferyl alcohol. Some species of s-IEMT have enhanced activity toward 4-O-methylation of ferulic acid. Additional species of s-IEMT have the capacity to generate iso-sinapyl alcohol. These s-IEMTs are useful for altering lignin precursors in plants, altering lignin composition in plants, and for producing potentially useful chemicals and chemical feedstock in plants as well as in different heterologous expression systems. […]
as §2, §5

[15] = substrate: COc1cc(/C=C/CO)ccc1O; experiment: as above; format: biochemical, C. breweri; conditions: other: MOMT-5
From the text: as §6, §2, §5

[16] = substrate: COc1cc(/C=C/CO)cc(OC)c1O; experiment: as above; format: biochemical, C. breweri; conditions: other: MOMT-5
From the text: as §6, §2, §5

B1: C. breweri (iso)eugenol-4-O-methyltransferase (SEQ ID NO. 1) variant MOMT9-1, T133L/E165I/F175I/F166W/H169F/M26H/S30R/V33S/T319M (Clarkia breweri; … (protein)
chain: STGNAEIQIIPTHSSDEEANLFAHQLARAASLPMALKAAIELDVLEIMAKSVPPSGYISPAEIAAQLPTTNPEAPVMLDRVLRLLASYSVVTYTLRELPSGKVERLYGLAPVCKFLTKNEDGVSLAPFLLLATDKVLLEPWFYLKDAILEGGIPFNKAYGMNIWDYFGTDHRINKVFNKGMSSNSTITMKKILEMYNGFEGLTTIVDVGGGTGAVASMIVAKYPSINAINFDLPHVIQDAPAFSGVEHLGGDMFDGVPKGDAIFIKWICHDWSDEHCLKLLKNCYAALPDHGKVIVAEYILPPSPDPSIATKVVIHMDALMLAYNPGGKERTEKEFQALAMASGFRGFKVASCAFNTYVMEFLKTA
Km [1]: 16.1 ± 1.4 µM | Vmax [1]: 88.4 ± 1.7 nmol/mg/min | kcat [1]: 0.063 ± 0.001 s⁻¹ | Km [2]: 109.5 ± 4.0 µM | Vmax [2]: 24.2 ± 0.3 nmol/mg/min | kcat [2]: 0.017 ± 0.0002 s⁻¹

B2: MOMT-5: previously generated modified C. breweri (iso)eugenol-4-O-methyltransferase (m-IEMT), substitutions T133L/E165I/F175I/F166W/H169F (protein, UniProt O04385 3-368, looked up, variant T133L E165I F175I F166W H169F)
(Iso)eugenol …: STGNAEIQIIPTHSSDEEANLFAMQLASAAVLPMALKAAIELDVLEIMAKSVPPSGYISPAEIAAQLPTTNPEAPVMLDRVLRLLASYSVVTYTLRELPSGKVERLYGLAPVCKFLTKNEDGVSLAPFLLLATDKVLLEPWFYLKDAILEGGIPFNKAYGMNIWDYFGTDHRINKVFNKGMSSNSTITMKKILEMYNGFEGLTTIVDVGGGTGAVASMIVAKYPSINAINFDLPHVIQDAPAFSGVEHLGGDMFDGVPKGDAIFIKWICHDWSDEHCLKLLKNCYAALPDHGKVIVAEYILPPSPDPSIATKVVIHTDALMLAYNPGGKERTEKEFQALAMASGFRGFKVASCAFNTYVMEFLKTA
catalytic efficiency (kcat/Km) for coniferyl alcohol higher than for sinapyl alcohol [3]: less than 3 fold | Specific activity with ferulic acid as the substrate [4]: 7.84 nmol/min/mg | Specific activity with 5-hydroxyl coniferyl alcohol, iso-sinapyl alcohol [5]: 43.5 ± 4.0 nmol/mg/min

B3: C. breweri (iso)eugenol-4-O-methyltransferase (SEQ ID NO. 1) variant MOMT8-1, T133L/E165I/F175I/F166W/H169F/M26H/S30R/V33S (Clarkia breweri; … (protein)
chain: STGNAEIQIIPTHSSDEEANLFAHQLARAASLPMALKAAIELDVLEIMAKSVPPSGYISPAEIAAQLPTTNPEAPVMLDRVLRLLASYSVVTYTLRELPSGKVERLYGLAPVCKFLTKNEDGVSLAPFLLLATDKVLLEPWFYLKDAILEGGIPFNKAYGMNIWDYFGTDHRINKVFNKGMSSNSTITMKKILEMYNGFEGLTTIVDVGGGTGAVASMIVAKYPSINAINFDLPHVIQDAPAFSGVEHLGGDMFDGVPKGDAIFIKWICHDWSDEHCLKLLKNCYAALPDHGKVIVAEYILPPSPDPSIATKVVIHTDALMLAYNPGGKERTEKEFQALAMASGFRGFKVASCAFNTYVMEFLKTA
Km [6]: 16.1 ± 1.3 µM | Vmax [6]: 68.1 ± 1.6 nmol/mg/min | kcat [6]: 0.049 ± 0.001 s⁻¹ | Km [7]: 26.3 ± 4.1 µM | Vmax [7]: 8.5 ± 0.3 nmol/mg/min | kcat [7]: 0.006 ± 0.000 s⁻¹

B4: C. breweri (iso)eugenol-4-O-methyltransferase (SEQ ID NO. 1) variant MOMT8-3, T133L/E165I/F175I/F166W/H169F/M26S/S30F/V33G (Clarkia breweri; … (protein)
chain: STGNAEIQIIPTHSSDEEANLFASQLAFAAGLPMALKAAIELDVLEIMAKSVPPSGYISPAEIAAQLPTTNPEAPVMLDRVLRLLASYSVVTYTLRELPSGKVERLYGLAPVCKFLTKNEDGVSLAPFLLLATDKVLLEPWFYLKDAILEGGIPFNKAYGMNIWDYFGTDHRINKVFNKGMSSNSTITMKKILEMYNGFEGLTTIVDVGGGTGAVASMIVAKYPSINAINFDLPHVIQDAPAFSGVEHLGGDMFDGVPKGDAIFIKWICHDWSDEHCLKLLKNCYAALPDHGKVIVAEYILPPSPDPSIATKVVIHTDALMLAYNPGGKERTEKEFQALAMASGFRGFKVASCAFNTYVMEFLKTA
Km [8]: 65.4 ± 13.0 µM | Vmax [8]: 0.145 µmol/min/mg | kcat [8]: 0.104 ± 0.006 s⁻¹ | kcat/Km [8]: 1590 M⁻¹ s⁻¹ | Km [9]: 23.3 ± 2.4 µM | Vmax [9]: 0.0735 µmol/min/mg | kcat [9]: 0.053 ± 0.001 s⁻¹ | kcat/Km [9]: 2270 M⁻¹ s⁻¹ | Km [10]: 35.9 ± 9.8 µM | Vmax [10]: 0.0515 µmol/min/mg | kcat [10]: 0.036 ± 0.003 s⁻¹ | kcat/Km [10]: 1000 M⁻¹ s⁻¹

B5: C. breweri (iso)eugenol-4-O-methyltransferase (SEQ ID NO. 1) variant MOMT8-2, T133L/E165I/F175I/F166W/H169F/M26S/S30F/V33Y (Clarkia breweri; … (protein)
chain: STGNAEIQIIPTHSSDEEANLFASQLAFAAYLPMALKAAIELDVLEIMAKSVPPSGYISPAEIAAQLPTTNPEAPVMLDRVLRLLASYSVVTYTLRELPSGKVERLYGLAPVCKFLTKNEDGVSLAPFLLLATDKVLLEPWFYLKDAILEGGIPFNKAYGMNIWDYFGTDHRINKVFNKGMSSNSTITMKKILEMYNGFEGLTTIVDVGGGTGAVASMIVAKYPSINAINFDLPHVIQDAPAFSGVEHLGGDMFDGVPKGDAIFIKWICHDWSDEHCLKLLKNCYAALPDHGKVIVAEYILPPSPDPSIATKVVIHTDALMLAYNPGGKERTEKEFQALAMASGFRGFKVASCAFNTYVMEFLKTA
Km [11]: 57.9 ± 13.0 µM | Vmax [11]: 0.123 µmol/min/mg | kcat [11]: 0.088 ± 0.006 s⁻¹ | kcat/Km [11]: 1520 M⁻¹ s⁻¹ | Km [12]: 15.9 ± 1.7 µM | Vmax [12]: 0.0322 µmol/min/mg | kcat [12]: 0.023 ± 0.001 s⁻¹ | kcat/Km [12]: 1450 M⁻¹ s⁻¹ | Km [13]: 35.2 ± 9.8 µM | Vmax [13]: 0.0379 µmol/min/mg | kcat [13]: 0.027 ± 0.002 s⁻¹ | kcat/Km [13]: 767 M⁻¹ s⁻¹

B6: C. breweri (iso)eugenol-4-O-methyltransferase (SEQ ID NO. 1) variant MOMT-5, T133L/E165I/F175I/F166W/H169F (Clarkia breweri; E165I/F166W/F175I/H169F/T133L) (protein)
chain: STGNAEIQIIPTHSSDEEANLFAMQLASAAVLPMALKAAIELDVLEIMAKSVPPSGYISPAEIAAQLPTTNPEAPVMLDRVLRLLASYSVVTYTLRELPSGKVERLYGLAPVCKFLTKNEDGVSLAPFLLLATDKVLLEPWFYLKDAILEGGIPFNKAYGMNIWDYFGTDHRINKVFNKGMSSNSTITMKKILEMYNGFEGLTTIVDVGGGTGAVASMIVAKYPSINAINFDLPHVIQDAPAFSGVEHLGGDMFDGVPKGDAIFIKWICHDWSDEHCLKLLKNCYAALPDHGKVIVAEYILPPSPDPSIATKVVIHTDALMLAYNPGGKERTEKEFQALAMASGFRGFKVASCAFNTYVMEFLKTA
Km [14]: 105.0 ± 11.2 µM | Vmax [14]: 0.101 µmol/min/mg | kcat [14]: 0.072 ± 0.003 s⁻¹ | kcat/Km [14]: 686 M⁻¹ s⁻¹ | Km [15]: 11.4 ± 1.6 µM | Vmax [15]: 96.1 ± 3.8 nmol/mg/min | kcat [15]: 0.069 ± 0.009 s⁻¹ | Km [16]: 14.7 ± 2.3 µM | Vmax [16]: 46.6 ± 1.5 nmol/mg/min | kcat [16]: 0.033 ± 0.001 s⁻¹
